Experimental data taken from patent US20220339289A1 (Bicycle, published 2022).
Starred links: 1 amine or outer side, 2 acyl side, 3 side chain; linkers in the order of their positions; H or OH if unused. Positions of bridges follow the written chain, without caps; N, C: chain ends. *: point of attachment. TATA = O=C(CC[*:1])N1CN(C(=O)CC[*:2])CN(C(=O)CC[*:3])C1; Pent4ynoyl = C#CCCC(=O)*

Molecular target: T1, Recombinant biotinylated human P-Selectin protein (human, UniProt P16109 42-771, limits assumed, biotinylated (site not stated))
T1 sequence (looked up): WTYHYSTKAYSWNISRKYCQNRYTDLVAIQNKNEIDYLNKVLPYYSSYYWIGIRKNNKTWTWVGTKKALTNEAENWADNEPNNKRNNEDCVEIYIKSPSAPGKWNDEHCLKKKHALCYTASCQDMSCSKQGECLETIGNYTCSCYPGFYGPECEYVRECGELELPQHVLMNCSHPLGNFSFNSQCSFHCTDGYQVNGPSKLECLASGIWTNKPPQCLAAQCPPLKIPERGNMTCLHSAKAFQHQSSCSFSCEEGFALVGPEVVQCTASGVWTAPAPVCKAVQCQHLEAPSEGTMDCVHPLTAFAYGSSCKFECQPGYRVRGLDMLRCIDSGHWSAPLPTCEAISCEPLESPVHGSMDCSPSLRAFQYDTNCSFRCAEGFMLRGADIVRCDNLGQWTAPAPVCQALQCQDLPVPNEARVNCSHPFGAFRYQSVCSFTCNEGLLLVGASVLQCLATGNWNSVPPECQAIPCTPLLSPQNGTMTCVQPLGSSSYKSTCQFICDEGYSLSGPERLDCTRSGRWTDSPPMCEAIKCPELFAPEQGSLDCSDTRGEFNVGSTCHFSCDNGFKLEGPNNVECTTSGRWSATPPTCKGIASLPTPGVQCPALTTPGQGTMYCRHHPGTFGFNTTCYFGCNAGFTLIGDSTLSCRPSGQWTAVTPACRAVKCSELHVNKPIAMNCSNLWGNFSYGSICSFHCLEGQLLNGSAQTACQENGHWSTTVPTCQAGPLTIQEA
Test: SPR (Biacore), biotinylated human P-selectin captured on streptavidin chip, peptide as analyte; peptide BCY5455, a separate peptide number
Description: Biacore experiments were performed to determine ka (M−1s−1), kd (s−1), KD (nM) values of monomeric peptides binding to human Selectin proteins. Recombinant biotinylated human P-Selectin protein was used. For analysis of binding, either a Biacore 3000 or 5200 instrument was used with a CMS sensor chip (GE Healthcare). For sensor chip surface preparation, streptavidin was immobilized on the chip using standard amine-coupling chemistry at 25° C. with HBS-N (10 mM HEPES, 0.15 M NaCl, pH 7.4) as the running buffer. The carboxymethyl dextran surface was activated with a 12 min injection of a 1:1 ratio of 0.4 M 1-ethyl-3-(3-dim ethyl aminopropyl) carbodiimide hydrochloride (EDC)/0.1 M N-hydroxy succinimide (NHS) at a flow rate of 10 μl/min. For capture of streptavidin, protein was diluted to 0.2 mg/ml in 10 mM sodium acetate (pH 4.5) and captured by injecting 70 μl onto the activated chip surface. Residual activated groups were blocked with a 7 min injection of 1 M ethanolamine (pH 8.5). Biotinylated protein stock was diluted 1:100 in HBS-N and captured on one flow cell at 5 μl/min to a level of 1000-1500 RU. Buffer was changed to PBS/0.05% Tween 20 and a dilution series of the peptides was prepared in this buffer with a final DMSO concentration of 0.5%. […] In all cases a titration was performed with either seven 2-fold dilutions or five 3-fold dilutions. […]

B1: BCY5455 (peptide)
peptide: Pent4ynoyl-ACYMEWCDVTDYGCA-NH2
modifications: linker 2-7-14 via TATA; also: tandem dimer of 2 copies via central hinge C (GTA) and spacer S1A n=23 joined to N-terminal Pya
Kd: 1250 nM
